Measured values reported in the supplement of paper PMC12764529.
± gives the half width of the 95% confidence interval.

Columns and labels:
[1] = folding stability dG unfold from trypsin proteolysis; higher = more stable
Outline: (§1)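 Bayesian fitting of sequencing counts gave K50 for each design. Unfolding free energy followed by setting this against a sequence-predicted unfolded-state K50 and a shared folded-state K50, either per protease or with trypsin and chymotrypsin combined. The designs, under 80 residues and lacking cysteine, were digested in a PA-tagged cDNA display format at 11 threefold-diluted protease concentrations and without protease, and only those with AlphaFold2 dimer inter-PAE above 15 were kept.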

[2] = folding stability dG unfold from chymotrypsin proteolysis; higher = more stable
Outline: as §1

[3] = folding stability dG unfold (combined trypsin and chymotrypsin); higher = more stable
Outline: as §1

Sequence | folding stability dG unfold [1] [kcal/mol] | folding stability dG unfold [2] [kcal/mol] | folding stability dG unfold [3] [kcal/mol]
SNPDDQKKAKPIEIEIEIDFKPERERDPDGKERPRFEFDIEIKIPPGAPLDMITIYIRFDDWPFMITIPASA [r9_488_TrROS] | 1.8 ± 0.075 | 3.42 ± 0.15 | 2.95 ± 0.28
SNPNIKVTTTSETLPDNTLRTTETNPDTGTVTETLVPTDGNGPKTVKTTTTTTDTSTGKKTITTTTTTIPVS [r1_45_JUSTAS] | -1.33 ± 0.26 | 0.99 ± 0.02 | 0.529 ± 0.085
SPAEINIEFDPEEGRLRIKVKLEWPGGDPEPIATHEVPIGNNRYITYPIYKHPDGPWRIEDIDIMPPDELSA [r9_780_TrROS] | 0.283 ± 0.14 | 1 ± 0.15 | 0.727 ± 0.35
SPAKPVPIEITMHGDGMFEIRLPNGKEISFPNPDGQWAQATVDPDEGTIEIEMYNNGKRHTFEIPLPPNDSA [r9_226_TrROS] | 0.153 ± 0.14 | 0.499 ± 0.17 | 0.459 ± 0.16
SPDPGMKPRPMYMIRIKIEVTTPDGKKRGKHDFIIQSPEEAKEFIEELAENRGMKIKKIDIDIYPMPWLKSA [r9_1226_TrROS] | 1.5 ± 0.044 | 2.56 ± 0.061 | 2.18 ± 0.1
SPDVKILDIERHPDDGSISIKLKFPDGWPVTLHYNPDGSHTIHNPGNGAPIQIKYDGNQLKIELPDNLKFSA [r9_233_TrROS] | 0.478 ± 0.023 | 0.868 ± 0.086 | 0.729 ± 0.083
SPEAVAEALRKLGFDLDIERIDVEPLPDGTYRVTVTRGDKPVFTVTVTAPPPPPPVFVVRDADGTERLVRSA [r9_442_TrMRF] | 0.704 ± 0.054 | 2.4 ± 0.03 | 1.98 ± 0.036
SPEKEIKVKYELPEPGSGPVKVEATFTINPKTGEVKMPVTLTRPGSSSQVNLPEELLKELKNKVLEELGKSA [r9_1136_JUSTAS] | -0.621 ± 0.29 | 0.795 ± 0.089 | 0.442 ± 0.083
SPEVPPGKTLEREFKGVPVRLTREEESGTIHITVYPPTDPSKPLYEAEFSPDELRPIPLPPEVAAALAAESA [r9_1051_JUSTAS] | -0.681 ± 0.24 | 0.0553 ± 0.1 | -0.13 ± 0.16
SPFRLKIEIDEVGPAGQEIRVKLEIWSDNKPIEMEHTIKVPNGRLYRIRMNIYMPPDGNFQLNLDVYPLDSA [r9_255_TrROS] | 4.29 ± 0.23 | 6.34 ± 0.37 | > 6
SPIYVFIEKTNNKRTIMIQNPENGWWVEIKFNGGEITFPIDSVEDFLDELKDLGWPIEITKIRPLPPGQLSA [r9_1102_TrROS] | 2.79 ± 0.17 | 3.32 ± 0.12 | 3.16 ± 0.16
SPKEPQKVRIRIRNPENGKPIWEFDIWFPPDGGVKVKIEHPNEKHEYPMPADEALDFLENHPFKIEEIEVSA [r9_470_TrROS] | 0.739 ± 0.18 | 0.301 ± 0.2 | 0.567 ± 0.33
SPLERLLRAILNAPADTTIVVPLPDDLVAVIRIEPATTELDGVPYRFLVARIEIRNPDGVLLGELTLVLPLS [r1_386_TrMRF] | 3.88 ± 0.086 | 5.78 ± 0.091 | 5.63 ± 0.11
SPLKPGDVYTEPGGPLLRVEKVTLSEDPNKFPKKLEIELVPIPPPTPTLEEYTLPNGERRTLVLFEFDGPSA [r9_914_JUSTAS] | -0.308 ± 0.31 | -1.17e-05 ± 0.5 | -0.217 ± 0.42
SPLTLTFENPENGIRVELVFDPETPEVHAKVYAPNGELLSEETFEVEEKKITLRFNLEGKEFELEIELDESA [r9_385_TrMRF] | 3.86 ± 0.12 | 4.25 ± 0.082 | 4.16 ± 0.11
SPNFERYEHTIEIELPNGRRIKIDVEMYRPPDGNPWARIKIEVEDNNGEPKKKDIWMPMNDAEKAIEDLLSA [r9_189_TrROS] | 1.9 ± 0.14 | 1.85 ± 0.093 | 1.99 ± 0.43
SPPGLRIRIESPDNGEPIPFPIPPNVEVDVKRDKNGNFIATIKIQNPENGKKWTIEIDAPMRIVEIEPVPSA [r9_467_TrROS] | 1.6 ± 0.076 | 3.35 ± 0.16 | 2.76 ± 0.21
SPPHWMIMPTVERKDPNGEKKTVTYMIPVPPGNWDKMLDNIADEAGDPDLKIKEIEPSKNGFIMIKLKVKSA [r9_1101_TrROS] | 0.497 ± 0.17 | 0.604 ± 0.48 | 0.0989 ± 0.54

Sequence | folding stability dG unfold [1] [kcal/mol] | folding stability dG unfold [2] [kcal/mol] | folding stability dG unfold [3] [kcal/mol]
SPPIEIKPAPENYLIAKIIDPKTNKVYYILIPKDAKLDQPALVYHPDKKEYIPLKEILDLLKKGYPLSISSA [r9_250_TrMRF] | 2.09 ± 0.075 | 2.43 ± 0.059 | 2.35 ± 0.14
SPPITFFRVPAEYDEPNGKRTIKVRIWRIRDVEKDPNGGPKMDMEPQPVTFKLPVPPGAPIPPGDWIFAFSA [r9_277_TrROS] | 1.57 ± 0.16 | 0.315 ± 0.35 | 0.831 ± 0.34
SPPITIEIEYERNPDNGMFPLKVKAWNPDGEPIGEREIPFKGSPEEMRERAMKEAKELADKNGWPIEIEWSA [r9_31_TrROS] | -0.436 ± 0.17 | 0.637 ± 0.18 | 0.331 ± 0.19
SPPNFEVKEVEIPVPWEEIKELLPPGFTDIEPTGDRWTLHFKHPGYFVMIEIQWDPEDNQFPVKISVFKMSA [r9_604_TrROS] | 2.59 ± 0.11 | 3.76 ± 0.054 | 3.35 ± 0.19
SPPNFRMEQEEIEIEIRFPDGWRVSVEIEIHRMRFPDGDEMLHIDIKVEADPNNPGMRKLAKNLVEEIINSA [r9_908_TrROS] | 1.24 ± 0.21 | 2.14 ± 0.21 | 1.85 ± 0.41
SPRIEVRKLPDGTELVRIEIPTPEGNPVVVEATVTYDPETGTVTQEVTLTDPNVPPEVKALLESFTLTVPSA [r9_715_JUSTAS] | 1.12 ± 0.019 | 1.54 ± 0.028 | 1.4 ± 0.042
SPSPAAKNMKPIRIRLRDPNGKKYKIENINVGPDGQFQIRIKFPGNTHTQTLPPGAPFELPPDRIEEVEISA [r9_993_TrROS] | 0.808 ± 0.079 | 0.971 ± 0.2 | 0.959 ± 0.092
SPVPLDVPPGSRAVLVFRFPDGSRAVAVFDPVTGKATVTFYPPDGSKVTRTFDGPDLADLPPGVERIAPLSA [r9_1110_TrMRF] | 1.77 ± 0.11 | 2.7 ± 0.12 | 2.34 ± 0.14
SPVVLPLTLGDRPILARLYPGEGVLEVRDPDGRLVGRATVTPNRINLVFRALDDDTTLVFELPVLPPDDPSA [r9_963_TrMRF] | 1.66 ± 0.07 | 1.82 ± 0.045 | 1.84 ± 0.12
SRKFLNDPNIDKVEPTIVIPMSPEERKELAQNLANGIYNYLREHGWPLPPNIEIKIIPFPSPEQMKKMMKSA [r9_204_TrROS] | 0.6 ± 0.15 | 1.09 ± 0.17 | 0.901 ± 0.13
SRKISIWIPPDDPMMTPEEIANKLAQQGYPVEIDDVEWNPENGWVVITVEIEEPNGEPIADIEVWIPWNDSA [r9_879_TrROS] | 1.83 ± 0.098 | 1.6 ± 0.057 | 1.65 ± 0.19
SRLTVTSEVDPNGNSSTSTITYYDPSTGQPYTLTVTITKLPDGTYKVTITFPSNSTTTTFTLAPDETINLSA [r9_1220_JUSTAS] | 2.58 ± 0.2 | 3.27 ± 0.055 | 3.04 ± 0.22
SSASAMAPLPVEVYTLTVTVVKPGGEEVGTYTFTFNSPEEAKAFLEAFAKEKGLTIKKATLTRTPDTSLSSA [r9_1226_JUSTAS] | 2.7 ± 0.12 | 4.59 ± 0.054 | 4.16 ± 0.1
SSEKVELAKKYLKEKGIPIKEFKEITPTGITILAPNGKWITISVKPGDLNEITINPKKSSDGGYENDIPYSA [r9_809_JUSTAS] | 0.215 ± 0.049 | 0.92 ± 0.09 | 0.669 ± 0.088
SSGIAEIVAANPGVSLEELAKLIKEKLKAELPTDEPIEIKMTKSPDGYKITITIKDENNWHSDEYYVKPGSA [r9_805_JUSTAS] | 2.95 ± 0.2 | 3.14 ± 0.16 | 3.07 ± 0.19
SSIEEQIREIFEPKGMEITDVKTEKKPDGTTVAKFTYTDPVKDEKGNPISTLTKEGTVVFKNGKIVEVEESA [r9_519_JUSTAS] | 2.27 ± 0.052 | 2.779 ± 0.016 | 2.61 ± 0.049
SSIIIPGLPAEQARQLAKEFAEHYPNYDVKVEYHPDNGMITVDIEMPHKDPDGKPKGWRKMNINIHIWDPSA [r9_378_TrROS] | 0.868 ± 0.12 | 1.53 ± 0.17 | 1.23 ± 0.2
SSIPLDVPPGERVVRKGVFPDGSELTATYDPTTGRWTVTYYPPDGSVRTSVVPGAALASLPPGFTETRLESA [r9_1110_JUSTAS] | 1.45 ± 0.043 | 2.28 ± 0.034 | 2.02 ± 0.14
